Laboratory results published in the DeepSol protein solubility set.

Assay: soluble on expression in E. coli; label from the status in PepcDB or PDB records

| Sequence | soluble on expression in E. coli |
| --- | --- |
| MAHHHHHHMSAAGRLIRIRKKSKWIDRRSKRIPHNGKDVWQFGEQPSCALCHVRFRFKQDYEAHKESELHQNRLRWVETMKWWEEIGEPHHQQHAASEWEWFRQRVLPAKAAAMGLSEEDAARELRRAVMHETPRWYSRIQPPNARSEIKEPRDQRWPSSPKW | not soluble |
| MSLASIVSVSSYPPPYLLKQETTTEFAKELFQEDFRDIERLLKSFSNGQIEERQFAVPLDWFRQDHSLQEKNDTYIKLATMFSVEVVRQCLQSNVFLKKPVAEEEIDTIVFVSSSGMATPSIEARMMNELPFSPHTKRVPMWGLGCAGGAAGMSRAYEYCRAFPRANVLVVCVELCSLTFQRQDRTKSNLIGASLFSDGVACALVSGDESDVLGRMKMPTRPLILGSSSTLMPDSEQVMGWDVKDTGLHVVFSRDIPNIIRHWLRPNVERFLETYRLSLEQIEAFIAHPGGRKVLEAYEEALSFSDEMTEYSRDILRHHGNMSSPTVLYVLEKFMKDTRDPGQYGLMAALGPGFCSELVLMQWEAVHEGHHHHHH | soluble |
| MKRLIGLVIVALVLLAACGSNNDKKVTIGVASNDTKAWEKVKELAKKDDIDVEIKHFSDYNLPNKALNDGDIDMNAFQHFAFLDQYKKAHKGTKISALSTTVLAPLGIYSDKIKDVKKVKDGAKVVIPNDVSNQARALKLLEAAGLIKLKKDFGLAGTVKDITSNPKHLKITAVDAQQTARALSDVDIAVINNGVATKAGKDPKNDPIFLEKSNSDAVKPYINIVAVNDKDLDNKTYAKIVELYHSKEAQKALQEDVKDGEKPVNLSKDEIKAIETSLAK | soluble |
| MHHHHHHSSGVDLGTENLYFQSMAKSAEVKLAIFGRAGVGKSALVVRFLTKRFIWEYDPTLESTYRHQATIDDEVVSMEILDTAGQEDTIQREGHMRWGEGFVLVYDITDRGSFEEVLPLKNILDEIKKPKNVTLILVGNKADLDHSRQVSTEEGEKLATELACAFYECSACTGEGNITEIFYELCREVRRRRMVQ | soluble |
| MRKSLTDIYEARVDAEELRADPAQHAVLEDLEGIRQWLEAHPERKRGLFGLFAAKEEPPKGLYLWGGVGRGKSMIMDLFTEAVEIPMKRRVHFHAFMQEVQQGMHEARKKGVEDALQPVADSVAGQVRLLAFDEMQITDITDAMVVGRLFQKLFEQGVVIVTTSNRPPEGLYENGLNREVFLPFIDLLRERMTVIELESPTDYRQHRLQGAQVFFHPARKAEQAIARIWSDLTGGDRGHPMRLPVNGRTVEIPRFANGVGRATFWGLCARPLGPADFLAIAEACRVLILEDIPRLSAENYNEAKRFVTLIDALYEARVRLIASAADEPERLYIEGEGSFEFERTASRLREMQSADWANLEHHHHHH | not soluble |
| MAIVPRPITKFKRACLRIKLARCQKTPLSNFARSDLRSFSVFRFNLSVLQLVSSKIVKLDIMKQAAITSALTQNKMDPINGNLTSTAPVEPLSLTAAEQVGGAFCHQFYITVSENRKAITKFYGHESKFYLDDQVVTGSQEIVKLYNHLPETTHFKIQSIKGYPTPHKQGVIINVIGTVNLRPFLQSFLLGQQGQKKYYVESDAFQYIDKFFVANTEKEKTTSSTGHNGHASGANGKDSKSSKTEQPKEQSKPAPPKQQTPKKAEDRIVKQDTPKSVEKEVAKTPQKPQLAQQPPQQRAPVPEPVQEQPKVQKTWANLVGGGGKSQPPQQQSYGQGQQIHQQTQMHHMQPSMHQQQQGSHAPLYQQQRQSHPANELRQAQESSDANLNERKIYLGGITREIVPSNTAQAESEIKQVFYKYGEIEEVRMPRKVLDSPNDTSKHAFAFITMRNKAGVKAIFEAATKDEQGVWKLPLKLDAFGFDGHAQISEQRDQPQGGGFRGGRGGFQPRGGQFFRRGGSGGAPRGGMRSGFQNAGQN | not soluble |
| GPGSMIEADVIRLNMEVEAAAARNADLSREVARLREELANSGLHNMDRTLVITEGTQTDSGMLREVALDLDDILFEVSELLFRLYPASSLDLSVRRDAQSSQLNDLSQRCLREVRSLKAAWEMKLDGYNQFISNIQRSQVDYHRSLDSKECQLRRKQQECDVLVGENARLSTLCSELESQLKTTQEAATRAEEQVGRLLQQTADLEAERRRLLDREAAMANTLVALRAECAFNPWSSLVGVKEAATTIESNGQLPSVREQAVAVTKAHIKPPGAVSASDVAMAFQGLDLDGQLPHMCVEPESVVDYYCKVKHSSPTRSLM | soluble |
| MIEYAALKFNVVSDPMSETAKKVIVGMSGGVDSSVSAWLLQQQGYQVEGLFMKNWEEDDGEEYCTAAADLADAQAVCDKLGIELHTVNFAAEYWDNVFELFLAEYKAGRTPNPDILCNKEIKFKAFLEFAAEDLGADYIATGHYVRRADVDGKSRLLRGLDSNKDQSYFLYTLSHEQIAQSLFPVGELEKPQVRKIAEDLGLVTAKKKDSTGICFIGERKFREFLGRYLPAQPGKIITVDGDEIGEHQGLMYHTLGQRKGLGIGGTKEGTEEPWYVVDKDVENNILVVAQGHEHPRLMSVGLIAQQLHWVDREPFTGTMRCTVKTRYRQTDIPCTVKALDDDRIKVIFDEPVAAVTPGQSAVFYNGEVCLGGGIIEQRLPLPVLEHHHHHH | soluble |
| MTENFFGKTLAARPVEAIPGMLEFDIPVHGDNRGWFKENFQKEKMLPLGFPESFFAEGKLQNNVSFSRKNVLRGLHAEPWDKYISVADGGKVLGTWVDLREGETFGNTYQTVIDASKSIFVPRGVANGFQVLSDFVAYSYLVNDYWALELKPKYAFVNYADPSLDIKWENLEEAEVSEADENHPFLKDVKPLRKEDL | soluble |
| MDSFLMKGYIKEANIDYSCSRGSMEDLPKWEFREIPKVPRAVMPSLSLEERKNNFNEVELGLSEEVARKEARRCLKCGCSARFTCDLRKEASNHGIVYEEPIHDRPYIPKVDDHPFIVRDHNKCISCGRCIAACAEIEGPGVLTFYMKNGRQLVGTKSGLPLRDTDCVSCGQCVTACPCAALDYRRERGKVVRAINDPKKTVVGFVAPAVRSLISNTFGVSYEEASPFMAGLLKKLGFDKVFDFTFAADLTIVEETTEFLSRIQNKGVMPQFTSCCPGWINFVEKRYPEIIPHLSTCKSPQMMMGATVKNHYAKLMGINKEDLFVVSIVPCLAKKYEAARPEFIHDGIRDVDAVLTTTEMLEMMELADIKPSEVVPQEFDEPYKQVSGAGILFGASGGVAEAALRMAVEKLTGKVLTDHLEFEEIRGFEGVKESTIDVNGTKVRVAVVSGLKNAEPIIEKILNGVDVGYDLIEVMACPGGCICGAGHPVPEKIDSLEKRQQVLVNIDKVSKYRKSQENPDILRLYNEFYGEPNSPLAHELLHTHYTPKHGDSTCSPERKKGTAAFDVQEFTICMCESCMEKGAENLYNDLSSKIRLFKMDPFVQIKRIRLKETHPGKGVYIALNGKQIEEPMLSGNIPDESESE | soluble |
| MSEMTPREIVSELDQHIIGQADAKRAVAIALRNRWRRMQLQEPLRHEVTPKNILMIGPTGVGKTEIARRLAKLANAPFIKVEATKFTEVGYVGKEVDSIIRDLTDSAMKLVRQQEIAKNRARAEDVAEERILDALLPPAKNQWGEVENHDSHSSTRQAFRKKLREGQLDDKEIEIDVSAGVSMGVEIMAPPGMEEMTNQLQSLFQNLGSDKTKKRKMKIKDALKALIDDEAAKLINPEELKQKAIDAVEQNGIVFIDEIDKICKKGEYSGADVSREGVQRDLLPLVEGSTVSTKHGMVKTDHILFIASGAFQVARPSDLIPELQGRLPIRVELTALSAADFERILTEPHASLTEQYKALMATEGVNIAFTTDAVKKIAEAAFRVNEKTENIGARRLHTVMERLMDKISFSASDMNGQTVNIDAAYVADALGEVVENEDLSRFIL | soluble |
| MSLRLFGTHIQAAIRPVIWLLLWQASSGFANQVRVEVEGDYDQLQENAEILLGEVQDRTADGLRRYASSAAAQVEEAVRALGYYNPTIRWQVNEQDEAPAELVLTIVPGEPVRVRSRQVDIQGPGADDPDLVQSLPERPREGDILNHGEYDGLRQAIQNRAGRLGYFDGEYETRKLKVDPDANAADILLTYRTGERYQLGEVTFLEGHGFDEQLLRQFVTTEPGEPFHADKVARLNRDLSNSGYFSGVDIDASPSQAEDRVIPVTIGLTPRPPRSVSAGVGFSTDVGPRFRGNWREHYINSMGHKRGADTELSELRQSVSGWYELPLDPPMTDSIRLGTGYQREHVEDVESERLTFGQQWNHQLDDGWMQVLSMRWEGERFRIGDGERGTSSLLLPGVSYSKLQADSPLDPSRGFRLQLDVTGAHRAVLSDADILHVNLLAKGLYTLADNHRFLARFNFGGVATNNFSDVPPSLRFFAGGDQSVRGYGYETLSPEDSDGVAVGGRYLIVGSAEYQYEFARNWRVAAFVDEGNAVNDVFDPLATGVGVGIRWVSPVGPLRLDVARGLNEELGGGWRIHFSMGPEEGHHHHHH | not soluble |
| MEEEILSFVSIQSHVSSAGEKPIHVLDENPKFSRLHPSPSNIDSGEDSTSINKSNMESYGFSPVKIIEALIRETTAQGNVNMQRKSLFFPTQISDLFPAILNSKRKTG | soluble |
| MTLLASLRDWLKAQQLDAVLLSSRQNKQPHLGISTGSGYVVISRESAHILVDSRYYVEVEARAQGYQLHLLDATNTLTTIVNQIIADEQLQTLGFEGQQVSWETAHRWQSELNAKLVSATPDVLRQIKTPEEVEKIRLACGIADRGAEHIRRFIQAGMSEREIAAELEWFMRQQGAEKASFDTIVASGWRGALPHGKASDKIVAAGEFVTLDFGALYQGYCSDMTRTLLVNGEGVSAESHLLFNVYQIVLQAQLAAISAIRPGVRCQQVDDAARRVITEAGYGDYFGHNTGHAIGIEVHEDPRFSPRDTTTLQPGMLLTVEPGIYLPGQGGVRIEDVVLVTPQGAEVLYAMPKTVLLTGEA | soluble |
| MKVIKSNKVTNKFKVSILISTYNKEKFIENTLNNILAQTMNKNDFELIIVDDCSTDNTLDIISKKIESFSNYQFVQLDENSGTPAKPRNLSIDLSKGKYIMFVDGDDWLPSDALENLYTLLKSNKTDYATGLTKYVYSDRIARSGVALSKIAYNKIGLKNFRKSFYHLAPAGRMMKSSVIKKNNIRFPEMIFGEDLQFFAEVFFNTKNISTTQDVVYCANRYDENISLVKSEASTVLNRIKWQNEAYRYLTKKYKNNKIFANLLYRIINKDILEGKFYKKGFIKEIDTLLPVFQDILNTIDNDFNSLDYADDTLNQHALTLIKNGDKEEIIDFVNFYLKKDEKPLYLSNDKYYYVYKENKYKKRMHIILQKIIKKDENIFLKLYSKNSELKYLEIKNRKDPTNYTVLEIKKHLFKTGEYTVQFKANELSKGKLALTVLDKDLNGAAIKSGMQFDFYETVNGNLGYIKKLEHHHHHH | soluble |
| MPMPSEKTLVIIPTYNELENLPLITGRVRKANPNVDILIVDDNSPDGTGEAADALAASDSHIKVLHREGKGGLCGAYVAGFQWGLERDYTVLCEMDADGSHAPEQLHLLLAQVDNGADLVIGSRYVPGGKVVNWPKNRWVLSKGGNIYISLALGAGLSDMTAGYRAFRREVLETVDLNELSNAGYIFQVDMAWRVIQLGFDVREVPITFTEREIGESKLDGSFVKDSLLEVTKWGIHHRKEQITNLYTESSRLIRHEISSFRKKHLI | not soluble |
| MDSQKDFNLGDSSKGEKEGMQPSTGNNQFEPFEFLKKMIQPGRVMKRSKNNLSSNEVWSVCRAVIDEFKKEQNLMEVSAPVTVIGDVHGNFHDLYRALLARTEQDITDEQKSNFSTRQFVRDKYVFLGNYIDKGPRSIECICLLFAFKICFPQKYILLRGPHECPSVNSSEFLGVMETFSPNHFKKIHKKFNEAFSWMPLAAVVGQKILCVHGGISPRLTSWEDIRKIKRPLKDATEDPLATDLLFADTLDFDLIHIPTRKPKYEFNVIRNMSVMYNEAAVTQFCEKFNLKLIIRSHMKVPFGYRFFSEKRLITIFNSTGFQNESNYGAVLKIDGNAKITIISLLPQQSKAEVQEKAHHSDMTSECNTMSSKGP | not soluble |
| LMGDDKVKKEVGRASWKYFHTLLARFPDEPTPEEREKLHTFIGLYAELYPCGECSYHFVKLIEKYPVQTSSRTAAAMWGCHIHNKVNEYLKKDIYDCATILEDYDCGCSDSDGKRVS | soluble |
